{"source": "paper PMC8097376", "about": "(EMBO Reports, 2021)", "binders": {"B1": {"name": "nanobody NM1226 (VHH)", "VHH": "QVQLVESGGGSVQPGGSLRLSCLGSGSLDYYAIGWFRQAPGKEREGVSCIASSGDRTIYADSVKGRFTISRDYGKNTVYLQMNSLKPEDTAMYYCAALQGSYYYTGFVANEYDYWGQGAPVTVSS"}}, "key": {"[1]": {"target": "T1, RBD mutant derived from SARS-CoV-2 strain B.1.1.7 (UK) (SARS-CoV-2, B.1.1.7 (RBD N501Y), N501Y)", "T1 construct": "also called RBD_(B.1.1.7); source: Expi293 cells, purified", "assay": "BLI", "details": "both partners purified"}, "[2]": {"target": "T2, RBD mutant derived from SARS-CoV-2 strain B.1.351 (South Africa) (SARS-CoV-2, B.1.351 (RBD K417N, E484K, …, K417N | E484K | N501Y))", "T2 construct": "also called RBD_(B.1.351); source: Expi293 cells, purified", "assay": "BLI", "details": "both partners purified"}}, "data": [{"binder": "B1", "values": [{"measurement": "Kd", "setting": "[1]", "value": "~5.4", "unit": "nM"}, {"measurement": "Kd", "setting": "[2]", "value": "~5.5", "unit": "nM"}]}]}
